Measured values published in patent US7563760 (GENETICS INSTITUTE, dated 2009).

T1: LEC-γ1, chimeric form of P-selectin conjugated to the Fc portion of a human IgGγ1 (human, UniProt P16109 42-771)
T1 construct: extracellular domain; Built by known methods (Aruffo et al. 1991), made in CHO DUKX cells; also called P-selectin/IgG chimera; P-selectin/Fc chimera; not shown: Fc portion of a human IgGγ1
T1 sequence (looked up): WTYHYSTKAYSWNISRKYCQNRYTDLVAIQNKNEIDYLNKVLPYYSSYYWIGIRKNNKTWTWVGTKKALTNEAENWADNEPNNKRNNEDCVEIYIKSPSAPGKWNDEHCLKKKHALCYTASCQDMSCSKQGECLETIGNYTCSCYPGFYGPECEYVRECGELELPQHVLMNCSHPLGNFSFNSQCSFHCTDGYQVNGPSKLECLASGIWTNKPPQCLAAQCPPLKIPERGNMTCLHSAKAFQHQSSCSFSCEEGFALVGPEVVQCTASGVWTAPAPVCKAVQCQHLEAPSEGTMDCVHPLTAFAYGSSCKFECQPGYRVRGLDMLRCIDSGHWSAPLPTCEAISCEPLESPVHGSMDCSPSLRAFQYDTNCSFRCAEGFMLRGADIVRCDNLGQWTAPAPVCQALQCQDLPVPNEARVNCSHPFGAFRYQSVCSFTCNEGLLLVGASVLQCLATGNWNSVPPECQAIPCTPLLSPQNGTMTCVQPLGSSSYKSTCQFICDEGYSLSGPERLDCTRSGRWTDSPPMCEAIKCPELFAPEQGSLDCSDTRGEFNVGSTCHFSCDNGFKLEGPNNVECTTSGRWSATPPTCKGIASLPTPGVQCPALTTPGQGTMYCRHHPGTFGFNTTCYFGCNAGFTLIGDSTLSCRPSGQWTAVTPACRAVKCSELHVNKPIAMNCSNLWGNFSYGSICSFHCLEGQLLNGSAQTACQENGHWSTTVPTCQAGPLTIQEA

T2: chimeric protein comprising the extracellular domain of human E-selectin and the Fc portion of human IgG1 … (human, UniProt P16581 22-556)
T2 construct: extracellular domain; Built analogously to LEC-γ1; also called soluble E-selectin chimera; immobilized E-selectin; not shown: Fc portion of human IgG1
T2 sequence (looked up): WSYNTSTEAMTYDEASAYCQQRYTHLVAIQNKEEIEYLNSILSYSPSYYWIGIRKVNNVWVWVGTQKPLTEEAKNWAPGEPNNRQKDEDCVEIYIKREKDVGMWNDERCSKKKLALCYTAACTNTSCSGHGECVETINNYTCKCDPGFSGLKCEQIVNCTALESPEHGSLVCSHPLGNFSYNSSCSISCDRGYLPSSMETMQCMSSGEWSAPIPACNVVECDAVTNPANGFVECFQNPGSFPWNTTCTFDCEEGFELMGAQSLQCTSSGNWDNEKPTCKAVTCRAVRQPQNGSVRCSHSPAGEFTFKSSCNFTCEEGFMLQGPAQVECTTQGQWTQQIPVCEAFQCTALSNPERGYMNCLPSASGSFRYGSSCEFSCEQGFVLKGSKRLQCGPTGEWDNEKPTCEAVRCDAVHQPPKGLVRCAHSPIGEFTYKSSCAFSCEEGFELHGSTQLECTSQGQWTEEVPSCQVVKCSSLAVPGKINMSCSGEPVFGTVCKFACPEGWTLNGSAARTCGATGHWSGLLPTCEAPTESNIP

T3: P-selectin expressed on the surface of CHO cells (CHO:P-selectin cell line) (UniProt P16109 42-830, limits assumed)
T3 construct: whole, on cells; also called P-selectin expressing CHO cells
T3 sequence (looked up): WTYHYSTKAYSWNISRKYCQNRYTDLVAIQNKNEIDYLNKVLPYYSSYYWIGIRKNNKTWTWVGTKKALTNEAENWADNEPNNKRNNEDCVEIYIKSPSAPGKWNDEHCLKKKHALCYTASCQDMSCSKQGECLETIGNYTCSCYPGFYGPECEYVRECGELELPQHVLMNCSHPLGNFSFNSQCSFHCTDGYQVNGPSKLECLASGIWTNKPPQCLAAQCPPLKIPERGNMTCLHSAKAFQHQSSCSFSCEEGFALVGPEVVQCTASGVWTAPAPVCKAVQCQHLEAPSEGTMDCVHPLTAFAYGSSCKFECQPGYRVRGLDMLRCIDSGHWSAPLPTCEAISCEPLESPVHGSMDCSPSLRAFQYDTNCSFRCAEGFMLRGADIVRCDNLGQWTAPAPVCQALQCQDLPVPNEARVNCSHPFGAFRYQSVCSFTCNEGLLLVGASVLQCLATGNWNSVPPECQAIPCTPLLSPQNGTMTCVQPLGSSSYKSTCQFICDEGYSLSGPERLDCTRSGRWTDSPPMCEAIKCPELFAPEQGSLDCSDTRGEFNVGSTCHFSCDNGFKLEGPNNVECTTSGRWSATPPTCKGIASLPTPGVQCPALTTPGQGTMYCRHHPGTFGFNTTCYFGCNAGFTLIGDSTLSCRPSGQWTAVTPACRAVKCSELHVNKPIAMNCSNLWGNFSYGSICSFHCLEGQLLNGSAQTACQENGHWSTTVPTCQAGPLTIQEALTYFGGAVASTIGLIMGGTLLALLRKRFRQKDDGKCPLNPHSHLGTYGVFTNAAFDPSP

T4: E-selectin expressed on CHO cells (CHO:E-selectin) (UniProt P16581 22-610, limits assumed)
T4 construct: whole, on cells; also called E-selectin expressing CHO cells; CHO cells which express E-selectin
T4 sequence (looked up): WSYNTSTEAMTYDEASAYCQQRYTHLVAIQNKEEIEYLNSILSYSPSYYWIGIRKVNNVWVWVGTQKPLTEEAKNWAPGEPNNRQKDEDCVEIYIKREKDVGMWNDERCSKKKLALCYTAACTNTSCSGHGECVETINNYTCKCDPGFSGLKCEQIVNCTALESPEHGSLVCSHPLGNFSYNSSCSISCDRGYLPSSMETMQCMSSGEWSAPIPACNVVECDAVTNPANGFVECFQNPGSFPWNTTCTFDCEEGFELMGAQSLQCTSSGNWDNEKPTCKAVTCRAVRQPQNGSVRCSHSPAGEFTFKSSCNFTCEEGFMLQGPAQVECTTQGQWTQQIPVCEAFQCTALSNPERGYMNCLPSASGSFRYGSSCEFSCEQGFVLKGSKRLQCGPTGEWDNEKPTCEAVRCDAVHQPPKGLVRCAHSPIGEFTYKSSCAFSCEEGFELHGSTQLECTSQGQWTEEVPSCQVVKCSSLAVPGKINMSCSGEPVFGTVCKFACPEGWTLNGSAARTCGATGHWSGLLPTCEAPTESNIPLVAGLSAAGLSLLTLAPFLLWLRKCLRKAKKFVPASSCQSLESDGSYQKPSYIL


Assays:
[1] = biological target: T1, LEC-γ1, chimeric form of P-selectin …; assay: affinity precipitation from 35S-labelled COS membrane lysates
Protocol: (§1) The labeled cells were washed, incubated with EGTA to loosen them from the dish surface, scraped from the dish, pelleted, and suspended in cold 10 mM PIPES buffer, pH 7.5, containing 100 mM KCl, 3 mM NaCl, 3.5 mM MgCl_2, and protease inhibitors (see above). Membrane extraction then was carried out by sonication, low speed centrifugation, high speed centrifugation, and solubilization in membrane lysis buffer as above, for labeled myeloid cells.
(§2) Affinity Precipitations. Membrane extracts were diluted 1:4 or 1:5 with cell lysis buffer or with TBSC buffer (20 mM TrisHCl, 150 mM NaCl, 2 mM CaCl_2, pH 7.5) supplemented with 5 mg/ml bovine serum albumin (approximately 99%, Sigma). Extracts thus diluted to 0.2-0.25% Triton X-100 were incubated with human IgG_1-Protein A Sepharose with end-over-end mixing at 4° C. overnight. […] The resins were washed 5 or more times in buffer containing 0.1-0.5% Triton X-100 until the radioactivity of the wash supernatants was reduced to background level. […]
(§3) COS cells were cotransfected with cDNAs encoding either PSGL-1 or CD43 and either Fuc-TIII or Fuc-TVII. […] The precipitated products were evaluated by SDS-PAGE/autoradiography following their release by EDTA/EGTA (for selectin mediated binding) or by boiling in SDS (for immunoprecipitations).

[2] = biological target: T2, chimeric protein comprising the …; assay: affinity precipitation from 35S-labelled COS membrane lysates (FIG. 29A)
Protocol: as §1, §2, §3

[3] = biological target: T3, P-selectin expressed on the surface of …; assay: conditioned medium coated on plastic dishes; adhesion of CHO:P-selectin cells
Protocol: COS cells were co-transfected with the pED.sPSL.T7 plasmid of Example 5(C), the pEA.3/4FT cDNA of Example 2, and a plasmid containing the PACE cDNA as set forth in SEQ ID NO:5. A parallel control co-transfection was done using only the pED.sPSL.T7 plasmid and the pEA.3/4FT plasmid. After 45 hours, conditioned medium from these transfected COS cells was coated onto plastic dishes and binding to CHO:P-selectin cells (Example 4) was determined.

[4] = biological target: T4, E-selectin expressed on CHO cells …; assay: plate coated with chimera; adhesion of 3H-labelled CHO:E-selectin cells (FIG. 15)
Protocol: Quantitative adhesion of CHO:P-selectin, CHO:E-selectin and CHO:L-selectin expressing cells was performed as described in Example 4(c), with the following modifications: COS cell and antibodies were omitted. Instead, 48-well microtiter plates (Costar) were coated for 16 hours at 4° C. with varying quantities of protein A-purified soluble PSGL-1/Fc chimeras. The unbound material was removed and the coated wells were treated with Hank's buffered saline (HBS) with 1 mg/ml BSA and 2 mM CaCl_2 for 1 hour at 4° C. Tritium labeled CHO selectin expressing cells were added and binding quantitated as described in Example 4(c).

Binder	binding result [1]	binding result [2]	fold increase in bound CHO:P-selectin cells against P-selectin ligand not co-expressed with PACE [3] [fold]	binding result [4]
148.Fc, P-selectin ligand-IgG chimera with amino acids 42-189 of SEQ ID NO:2 (Fc fusion, tyrosine residues of the anionic region (46, 48, 51 of SEQ ID NO:2) are the major site of sulfation; glycosylated, co-expressed with 3/4FT, also called pED.148.Fc product; pED.149.Fc; not shown: NotI junction/linker of pED.Fc; Fc region of a human IgG1 from pED.PSL.Fc) QATEYEYLDYDFLPETEPPEMLRNSTDTTPLTGPGTPESTTVEPAARRSTGLDAGGAVTELTTELANMGNLSTDSAAMEIQTTQPAATEAQTTPLAATEAQTTRLTATEAQTTPLAATEAQTTPPAATEAQTTQPTGLEAQTTAPAAM	–	–	–	binds
FFFE.148.Fc (Fc fusion, glycosylated, co-expressed with 3/4FT, also called pED.FFFE.148.Fc product; not shown: NotI junction/linker of pED.Fc; Fc region of a human IgG1) QATEFEFLDFEFLPETEPPEMLRNSTDTTPLTGPGTPESTTVEPAARRSTGLDAGGAVTELTTELANMGNLSTDSAAMEIQTTQPAATEAQTTPLAATEAQTTRLTATEAQTTPLAATEAQTTPPAATEAQTTQPTGLEAQTTAPAAM	–	–	–	binds

Continued, values first:

binding result [1]	binding result [2]	fold increase in bound CHO:P-selectin cells against P-selectin ligand not co-expressed with PACE [3] [fold]	binding result [4]	Binder
no binding	no binding	–	–	recombinant CD43 (pFCD43) from COS cells co-transfected with Fuc-TIII (other, UniProt P16150 20-400, looked up, co-expressed with Fuc-TIII, Membrane detergent extract; also called recombinant leukosialin) STTAVQTPTSGEPLVSTSEPLSSKMYTTSITSDPKADSTGDQTSALPPSTSINEGSPLWTSIGASTGSPLPEPTTYQEVSIKMSSVPQETPHATSHPAVPITANSLGSHTVTGGTITTNSPETSSRTSGAPVTTAASSLETSRGTSGPPLTMATVSLETSKGTSGPPVTMATDSLETSTGTTGPPVTMTTGSLEPSSGASGPQVSSVKLSTMMSPTTSTNASTVPFRNPDENSRGMLPVAVLVALLAVIVLVALLLLWRRRQKRRTGALVLSRGGKRNGVVDAWAGPAQVPEEGAVTVTVGGSGGDKGSGFPDGEGSSRRPTLTTFFGRRKSRQGSLAMEELKSGSGPSLKGEEEPLVASEDGAVDAPAPDEPEGGDGAAP
no binding	no binding	–	–	recombinant CD43 (pFCD43) from COS cells co-transfected with Fuc-TVII (other, UniProt P16150 20-400, looked up, co-expressed with Fuc-TVII, Membrane detergent extract; also called recombinant leukosialin) STTAVQTPTSGEPLVSTSEPLSSKMYTTSITSDPKADSTGDQTSALPPSTSINEGSPLWTSIGASTGSPLPEPTTYQEVSIKMSSVPQETPHATSHPAVPITANSLGSHTVTGGTITTNSPETSSRTSGAPVTTAASSLETSRGTSGPPLTMATVSLETSKGTSGPPVTMATDSLETSTGTTGPPVTMTTGSLEPSSGASGPQVSSVKLSTMMSPTTSTNASTVPFRNPDENSRGMLPVAVLVALLAVIVLVALLLLWRRRQKRRTGALVLSRGGKRNGVVDAWAGPAQVPEEGAVTVTVGGSGGDKGSGFPDGEGSSRRPTLTTFFGRRKSRQGSLAMEELKSGSGPSLKGEEEPLVASEDGAVDAPAPDEPEGGDGAAP
–	–	~2	–	sPSL.T7 co-expressed with 3/4FT and PACE (PACE-cleaved soluble P-selectin ligand) (ligand, not shown: large carriers, glycosylated; co-expressed with 3/4FT, also called PACE-cleaved P-selectin ligand; CP/PSL-T7 (R4.1) product) QATEYEYLDYDFLPETEPPEMLRNSTDTTPLTGPGTPESTTVEPAARRSTGLDAGGAVTELTTELANMGNLSTDSAAMEIQTTQPAATEAQTTPLAATEAQTTRLTATEAQTTPLAATEAQTTPPAATEAQTTQPTGLEAQTTAPAAMEAQTTAPAAMEAQTTPPAAMEAQTTQTTAMEAQTTAPEATEAQTTQPTATEAQTTPLAAMEALSTEPSATEALSMEPTTKRGLFIPFSVSSVTHKGIPMAASNLSV
